Experimental data: publication PMC3902948

How the values were obtained:
[1] = target: Prp43-Strep (Saccharomyces cerevisiae S288c, UniProt P53131 1-767); assay: UV cross-linking
[2] = target: Prp43-Strep;Strep-Ntr1(1-120) (Saccharomyces cerevisiae …, UniProt P53131;Q06411 1-767;1-120, |); assay: UV cross-linking
Chain of Prp43-Strep;Strep-Ntr1(1-120) (P53131 whole entry, chain 1 of 2): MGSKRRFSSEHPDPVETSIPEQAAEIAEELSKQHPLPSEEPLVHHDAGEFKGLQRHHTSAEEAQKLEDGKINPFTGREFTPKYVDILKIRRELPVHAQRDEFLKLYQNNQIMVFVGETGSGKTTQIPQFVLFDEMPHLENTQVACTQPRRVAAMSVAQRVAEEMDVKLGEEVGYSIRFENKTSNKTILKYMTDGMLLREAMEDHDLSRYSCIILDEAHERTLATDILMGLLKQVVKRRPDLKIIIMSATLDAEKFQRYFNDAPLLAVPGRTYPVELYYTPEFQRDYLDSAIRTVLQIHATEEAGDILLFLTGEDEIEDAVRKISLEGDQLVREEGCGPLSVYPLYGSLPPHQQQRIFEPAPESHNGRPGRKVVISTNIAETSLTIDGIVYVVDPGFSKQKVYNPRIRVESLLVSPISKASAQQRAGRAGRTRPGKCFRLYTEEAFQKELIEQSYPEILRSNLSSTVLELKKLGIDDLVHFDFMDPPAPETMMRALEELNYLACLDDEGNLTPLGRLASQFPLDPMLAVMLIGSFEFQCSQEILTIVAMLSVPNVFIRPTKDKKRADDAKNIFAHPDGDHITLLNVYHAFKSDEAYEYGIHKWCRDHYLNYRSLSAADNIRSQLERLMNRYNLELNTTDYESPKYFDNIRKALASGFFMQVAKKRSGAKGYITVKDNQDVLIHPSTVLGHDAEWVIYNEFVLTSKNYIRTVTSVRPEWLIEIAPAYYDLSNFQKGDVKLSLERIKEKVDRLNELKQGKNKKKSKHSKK
Chain of Prp43-Strep;Strep-Ntr1(1-120) (Q06411 1-120, chain 2 of 2): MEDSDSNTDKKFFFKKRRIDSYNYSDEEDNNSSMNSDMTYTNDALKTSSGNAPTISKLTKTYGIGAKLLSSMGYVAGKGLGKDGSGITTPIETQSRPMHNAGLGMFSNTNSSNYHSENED

Chain of Prp43-Strep (P53131 whole entry): as the sequence (P53131 whole entry, chain 1 of 2) above

Binder: GACGGGCUGUUGGUGAUGGAC (ssRNA) [21-mer ssRNA]
- binding result [1]: binds
- binding result [2]: binds
